Reference: patent US20210206855A1 (ADAGENE, published 2021)

Legend:
[1] = target: T1, recombinant human CTLA4-Fc (Sino Biological, 11159-H03H) (human, UniProt P16410 37-162); assay: ELISA, coated human CTLA4-Fc, batch 1; Data Batch 1
T1 construct: bought; whole entry named; Biotinylated in the yeast display assays; also called human CTLA4 fused with human FC fragment; biotinylated CTLA4-Fc; not shown: human Fc fragment
T1 sequence (looked up): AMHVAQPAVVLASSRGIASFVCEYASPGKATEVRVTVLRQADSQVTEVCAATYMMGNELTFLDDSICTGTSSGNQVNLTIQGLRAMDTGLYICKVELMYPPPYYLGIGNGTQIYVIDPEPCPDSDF
Protocol: (§1) Plates were blocked with PBS supplemented with 3% non-fat milk at 37° C. for 1 hour. After washing, 100 μL of 3-fold serial dilutions of antibodies were added to each well. After incubation at 37° C. for 1 hour, plates were washed four times, and […] conjugated anti-human IgG (Fab specific) (1:6000 dilution) was added to each well. Plates were incubated at 37° C. for 1 hour, washed four times, and then 50 μL TMB substrate solution was added to each well, and the plate was incubated at room temperature. […] The EC₅₀ was evaluated by fitting the ELISA data using the asymmetrical sigmoidal (five-parameter logistic equation) model of GraphPad Prism 6 software.

[2] = target: T1, recombinant human CTLA4-Fc (Sino …); assay: ELISA, coated human CTLA4-Fc, batch 2
Protocol: as §1

[3] = target: T1, recombinant human CTLA4-Fc (Sino …); assay: ELISA, coated human CTLA4-Fc, batch 1
Protocol: as §1

[4] = target: T1, recombinant human CTLA4-Fc (Sino …); assay: ELISA, coated human CTLA4-Fc
Protocol: as §1
The purified activatable antibodies were treated with the proteases which recognize the cleavage sequences, and were then tested to determine whether removal of the masking peptide restored their activity.

[5] = target: T1, recombinant human CTLA4-Fc (Sino …); assay: ELISA, coated human CTLA4-Fc (as Example 8)
Protocol: as §1

[6] = target: T1, recombinant human CTLA4-Fc (Sino …); assay: ELISA, coated human CTLA4-Fc (as Example 8); remark: listed apart in the source
Protocol: as §1

[7] = target: T1, recombinant human CTLA4-Fc (Sino …); assay: ELISA, coated human CTLA4-Fc (as Example 8); remark: listed apart in the source
Protocol: as §1

Binder	EC50 [1] [nM]	EC50 [2] [nM]	LogEC50 [2] [log M]	EC50 [3] [nM]	LogEC50 [3] [log M]	LogEC50 [4] [log M]	EC50 [5] [nM]	EC50 [6] [nM]	EC50 [7] [nM]
TY22404 (antibody, IgG1, V domains shown, also called masking peptide B13197) VH: EVQLVESGGGLVQPGGSLRLSCAASGYSISSGYHWSWIRQAPGKGLEWLARIDWDDDKYYSTSLKSRLTISRDNSKNTLYLQLNSLRAEDTAVYYCARSYVYFDYWGQGTLVTVSS VL: EVGSYPNPSSDCVPYYYACAYSGRSAGGGGSPLGLAGSGGSDIQLTQSPSSLSASVGDRVTITCRASQSVRGRFLAWYQQKPGKAPKLLIYDASNRATGIPSRFSGSGSGTDFTLTISSLQPEDFATYYCQQSSSWPPTFGQGTKVEIKR	178	128	-6.89	178	-6.75	-7.01	–	–	–
TY22404 (peptide as listed in Tables 26 and 29) (antibody, V domains shown, kept apart from m68) VH: EVQLVESGGGLVQPGGSLRLSCAASGYSISSGYHWSWIRQAPGKGLEWLARIDWDDDKYYSTSLKSRLTISRDNSKNTLYLQLNSLRAEDTAVYYCARSYVYFDYWGQGTLVTVSS VL: EVGSYPNPSSDCVPYYYACAYSGRSAGGGGTPLGLAGSGGSDIQLTQSPSSLSASVGDRVTITCRASQSVRGRFLAWYQQKPGKAPKLLIYDASNRATGIPSRFSGSGSGTDFTLTISSLQPEDFATYYCQQSSSWPPTFGQGTKVEIKR	–	–	–	–	–	–	68.4	117	122
